We go through one protein from patent publication US20050058747.

Data set [1] has as its target Soybean glycinin.
Data set [2] concerns the target Soybean agglutinin (SBA), P05046.
The target in data set [3] is T1, soybean Kunitz trypsin inhibitor, P01070.
T1 chain: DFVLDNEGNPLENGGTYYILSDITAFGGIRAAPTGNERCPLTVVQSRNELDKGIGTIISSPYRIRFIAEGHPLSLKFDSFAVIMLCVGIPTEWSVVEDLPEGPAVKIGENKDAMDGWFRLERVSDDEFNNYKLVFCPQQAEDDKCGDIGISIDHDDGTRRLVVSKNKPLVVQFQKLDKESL

For data set [4], the target named is T2, soybean Bowman-Birk inhibitor, P01055.
T2 chain: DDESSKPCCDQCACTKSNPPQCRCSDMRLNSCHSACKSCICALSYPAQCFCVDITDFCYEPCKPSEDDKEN

The target in data set [5] is Soybean beta-conglycinin.

Sequence of Soybean agglutinin (SBA), P05046 (P05046 33-285): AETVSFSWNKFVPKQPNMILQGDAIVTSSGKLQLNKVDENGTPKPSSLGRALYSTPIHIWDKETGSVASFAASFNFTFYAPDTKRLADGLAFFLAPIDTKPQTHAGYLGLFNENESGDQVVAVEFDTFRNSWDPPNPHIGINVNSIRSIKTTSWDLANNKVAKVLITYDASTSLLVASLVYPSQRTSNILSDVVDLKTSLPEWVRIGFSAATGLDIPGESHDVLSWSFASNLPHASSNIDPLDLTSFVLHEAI

B1: protease of the invention having amino acids 1-188 of SEQ ID NO: 2 (protease derived from Nocardiopsis dassonvillei subsp. dassonvillei DSM 43235) (protein)
chain: ADIIGGLAYYMGGRCSVGFAATNSAGQPGFVTAGHCGTVGTGVTIGNGTGTFQNSVFPGNDAAFVRGTSNFTLTNLVSRYNSGGYQSVTGTSQAPAGSAVCRSGSTTGWHCGTIQARNQTVRYPQGTVYSLTRTNVCAEPGDSGGSFISGSQAQGVTSGGSGNCSVGGTTYYQEVTPMINSWGVRIRT
As to B1, the Percentage degradation of isolated soy proteins in data set [1] was determined as 100%; in data set [2], 95%; in data set [3] it was 97%; in data set [4], 81%; in data set [5], 100%.
